Assay [1] has as its target FITC-CLMBWT peptide (residues 21-50), not phosphorylated (UniProt Q96GX8). Description: fluorescence polarisation. A general note: Fluorescence polarisation rises when a labelled molecule tumbles more slowly, as on binding a larger partner.
In assay [2] the target is FITC-pCLMBWT peptide (residues 21-50, pThr44) (UniProt Q96GX8). Nature of the assay: fluorescence polarisation.

Turning to “purified, catalytically inactive CNA/B containing CNA_(Trunc+H151Q) (from UniProt Q08209 1-391; P63098 1-170) (complex)”, the Kd (as a rule, a measure of binding affinity in units of concentration) is 291 nM in assay [1] and 14.1 nM in assay [2].

The values above are taken from doi:10.1101/2024.05.12.593783.
